Patent US20260217797A1 (Takeda / Millennium, published 2026)
Read-outs that look alike come from different tables or passages of the source.

Key:
SARS-CoV-2 S Trimer = SARS-CoV-2 S Trimer (SARS-CoV-2, UniProt P0DTC2 16-1213); assay: Octet BLI, IgG, avid
[1] = biological target: T1, SARS-CoV-2 wild type spike protein (on reporter virus particles) (SARS-CoV-2, UniProt P0DTC2 14-1273); assay: cell-based or functional assay
SARS-CoV-2 Spike S1-His [2] = biological target: T2, SARS-CoV-2 Spike S1-His (SARS-CoV-2, UniProt P0DTC2 16-685); assay: Octet BLI, IgG, monovalent
SARS-CoV1 Spike [change] [3] = biological target: T3, SARS-CoV1 Spike [change] (SARS-CoV-1, UniProt P59594 14-667); assay: Octet BLI, IgG, monovalent
MERS-CoV [change] = biological target: T4, MERS-CoV [change] (MERS-CoV, UniProt K9N5Q8 18-725); assay: Octet BLI, IgG, monovalent
T4 sequence: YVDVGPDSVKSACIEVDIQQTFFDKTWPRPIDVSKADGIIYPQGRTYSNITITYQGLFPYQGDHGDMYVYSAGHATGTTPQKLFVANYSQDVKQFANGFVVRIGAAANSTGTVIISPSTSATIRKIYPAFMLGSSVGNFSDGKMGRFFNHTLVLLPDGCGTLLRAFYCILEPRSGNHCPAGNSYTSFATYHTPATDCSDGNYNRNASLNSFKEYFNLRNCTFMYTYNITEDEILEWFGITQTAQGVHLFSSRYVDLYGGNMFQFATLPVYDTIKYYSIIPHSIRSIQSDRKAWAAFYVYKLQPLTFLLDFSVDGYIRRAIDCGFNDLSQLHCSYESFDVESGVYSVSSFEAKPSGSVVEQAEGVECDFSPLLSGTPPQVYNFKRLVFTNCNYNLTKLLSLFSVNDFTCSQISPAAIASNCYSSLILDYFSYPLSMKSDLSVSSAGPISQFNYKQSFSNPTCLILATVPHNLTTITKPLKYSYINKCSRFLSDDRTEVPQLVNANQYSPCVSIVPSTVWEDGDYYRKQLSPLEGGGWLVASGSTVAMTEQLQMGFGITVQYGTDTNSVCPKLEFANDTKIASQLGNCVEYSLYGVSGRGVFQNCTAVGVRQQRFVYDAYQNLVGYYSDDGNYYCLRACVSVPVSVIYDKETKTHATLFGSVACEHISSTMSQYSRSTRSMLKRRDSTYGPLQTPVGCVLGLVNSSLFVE

[4] = biological target: T1, SARS-CoV-2 wild type spike protein (on …); assay: cell-based or functional assay; remark: listed apart in the source
SARS-CoV1 Spike [change] [5] = biological target: T3, SARS-CoV1 Spike [change]; assay: Octet BLI, IgG, monovalent; remark: listed apart in the source
SARS-CoV-2 Spike S1-His [6] = biological target: T2, SARS-CoV-2 Spike S1-His; assay: Octet BLI, IgG, monovalent; remark: listed apart in the source

B1: A-5 (antibody, V domains shown)
VH: QVQLVESGGGLIQPGESLRLSCAASEFIVSRNYMSWVRQAPGKGLEWVSVIYSGGNTYYADSVKGRFTISRDNSKNTLYLQMNSLRAEDTAVYYCARDLRGPGCFDFWGQGTTVTVSS
VL: DIQVTQSPSSLSASVGDRVTITCQASQDISNFLNWYQQKPGKAPKLLIYDASNLETGVPSRFSASGSGTEFTFTISSLQPEDIATYYCQQYDNLRVTFGGGTKLEIK
- Kd (SARS-CoV-2 S Trimer): 2.41 nM
- PsV Neut Assay IC50 [1]: 1.1 nM
- Kd (SARS-CoV-2 Spike S1-His [2]): 37.3 nM
- binding result (SARS-CoV1 Spike [change] [3]): no binding
- binding result (MERS-CoV [change]): no binding

B2: A-17 (antibody, V domains shown)
VH: EVQLQESGPGLVKPSETLSLTCTVSGGSISSYYWSWIRQPPGKGLEWIGYIYYSGSTNYNPSLKSRVTISVGTSKNQFSLKLSSVTAADTAVYYCAKSASDEPPPSTAAAGSHYYYYGMDVWGQGTTVTVSS
VL: EIVMTQSPLSLPVTPGEPASISCRSSQSLLHSNGYNYLDWYLQKPGQSPHVLIYLGSNRASGVPDRFSGSGSGTDFTLKISRVEAEDVGVYYCMQALQTPNTFGQGTKLEIK
- PsV Neut Assay IC50 [1]: 0.66 nM
- Kd (SARS-CoV-2 Spike S1-His [2]): 1.58 nM
- binding result (SARS-CoV1 Spike [change] [3]): no binding
- binding result (MERS-CoV [change]): no binding

B3: A-3 (antibody, V domains shown)
VH: EVQLLESGPGLVKPSETLSLTCTVSGGSINSRSYYWGWIRQPPGKGLEWIGSIYYSGSTYYNPSLKSRVTISVDTSKNQFSLKLSSVIAADTAVYFCARLEQWELPGGWFDPWGQGTLVTVSS
VL: NFMLTQPHSVSESPGKTVTISCTRSSGSIASNYVQWYQQRPGSAPTTVIYEDNQRPSGVPDRFSGSIDISSNSASLTISGLKTEDEADYSCQSSDSSNVVFGGGTKLTVL
- Kd (SARS-CoV-2 S Trimer): 0.945 nM
- PsV Neut Assay IC50 [1]: 0.419 nM
- Kd (SARS-CoV-2 Spike S1-His [2]): 37.4 nM
- binding result (SARS-CoV1 Spike [change] [3]): no binding
- binding result (MERS-CoV [change]): no binding

B4: A-21.1 (antibody, V domains shown)
VH: EVQLVESGGGLVQPGGSLRLSCAASGFTFRRYWMHWVRQAPGKGLVWVSRINSDGSSTTYADSVKGRFTISRDNAKNTLYLQMNSLRAEDTAVYYCARELYYYDSRGFEEGEGWFDPWGQGTLVTVSS
VL: QSVLTQPPSVSGAPGQRVTISCTGISSNIGAGYDVHWYQQLPGTAPKLLIYGNSNRPSGVPDRFSASKSGTSAPLAITGLQAEDEADYYCQSSDRSLSGSVFGTGTKVTVL
- WT PsV IC50 [4]: 1.75 nM
- Kd (SARS-CoV1 Spike [change] [5]): 6.57 nM

B5: A-12 (antibody, V domains shown)
VH: EVQLLESGGGLVQPGGSLRLSCAVSGLTVSSNYMSWVRQAPGKGLEWVSLIYSGGSTYYADSVKGRFTISRDNSKNTLYLQMNSLRAEDTAVYYCARGELGIPYGMDVWGQGTTVTVSS
VL: QSVLTQPPSVSAAPGQKVTISCSGGSSNVGDNFVSWYQQLPGTAPKLLIYDNNRRPSGIPDRFSGSKSGTSATLGITGLQTGDEADYYCGTWDSSLSAGVFGGGTKVTVL
- Kd (SARS-CoV-2 S Trimer): 1.11 nM
- PsV Neut Assay IC50 [1]: 0.404 nM
- Kd (SARS-CoV-2 Spike S1-His [2]): 2.57 nM
- binding result (SARS-CoV1 Spike [change] [3]): no binding
- binding result (MERS-CoV [change]): no binding

B6: A-7 (antibody, V domains shown)
VH: EVQLVESGAEVRKPGASVKVSCKASGYTFTFYYIHWVRQAPGQGLEWMGWISPISGATNYAQTFQGRVTMTRDTSITTAYMELSSLTSDDTAVYYCAREKYYDSSGSSDYWGQGTLVTVSS
VL: QPVLTQPPSVSAAPGQNVTIFCSGSSSNIGNNYVSWYQQLPGPAPKLLIYENNKRPSGIPDRFSGSKSGTSATLGITGLQTGDEADYYCGTWESSLSAPRVFGSGTKLTVL
- Kd (SARS-CoV-2 S Trimer): 0.804 nM
- PsV Neut Assay IC50 [1]: 0.0922 nM
- Kd (SARS-CoV-2 Spike S1-His [2]): 2.71 nM
- binding result (SARS-CoV1 Spike [change] [3]): no binding
- binding result (MERS-CoV [change]): no binding

B7: A-4 (antibody, V domains shown)
VH: EVQLVESGGGLIQPGGSLTLSCAASGFTVSSNYMNWVRQAPGKGLEWVSVIYSGGSTYYADSVKGRFTISRDNSKNTLYLQMNSLRAEDTAVYYCAREVYSYFDYWGQGTLVTVSS
VL: DIQLTQSPSFLSASVGDRVTITCRASQGISSYLAWYQQKPGKAPKLLIYAASTLQSGVPSRFSGSGSGTEFTLTISRLQPEDLATYYCQQLNSYPPHTFGQGAKLEIK
- Kd (SARS-CoV-2 S Trimer): 1.97 nM
- PsV Neut Assay IC50 [1]: 2.26 nM
- binding result (SARS-CoV1 Spike [change] [3]): no binding
- binding result (MERS-CoV [change]): no binding

B8: A-8 (antibody, V domains shown)
VH: EVQLLESGGGLVQPGGSLRLSCAASGFTFSSYAMSWVRQAPGKGLEWVSAISGSGNSTSYADSVKGRFTLSRDNSKNTLYLQMNSLRAEDTAIYYCAKGLGTRSFNWGAFDYWGQGTLVTVSS
VL: DIRVTQSPSSLSASVGDRVTITCRASQGISYSLAWYQQKPGKAPKLLLYAASNLESGVPSRFSGSGSGTDYTLTVSSLQPEDFATYYCQQYYSTPWTFGQGTKVEIK
- Kd (SARS-CoV-2 S Trimer): 1.53 nM
- PsV Neut Assay IC50 [1]: 0.846 nM
- Kd (SARS-CoV-2 Spike S1-His [2]): 0.477 nM
- binding result (SARS-CoV1 Spike [change] [3]): no binding
- binding result (MERS-CoV [change]): no binding

B9: A-23.3 (antibody, V domains shown)
VH: EVQLVESGGGLVQPGRSLRLSCAASGFTFDDYAMHWVRQAPGKGLEWVSGTSWNSGTIGYADSVKGRFIISRDNAKNSLYLQMNSLRGEDMALYYCVKDRKREDPSLGGMDVWGQGTTVTVSS
VL: SYVLTQPPSVSVAPGQTARITCGGNNIGSKSVHWYQQKPGQAPVLVVYDDTDRPSGIPERFSGSNSGNTATLTISRVEAGDEADYYCQVWDSSSDDYVFGTGTKVTVL
- binding result (SARS-CoV1 Spike [change] [5]): no binding

B10: A-15 (antibody, V domains shown)
VH: QVQLVQSGAEVKKPGASVKVSCKASGYTSSSYYMHWVRQAPGQGPEWMGIINPGGTSTSYAQKFQGRVTMTRDTSTSTVYMELSSLRSEDTAVYYCAIGYCSTTSCRWGDAFDIWGQGTMVTVSS
VL: DIQVTQSPSSLSASVGDRVTITCRASQSISSYLNWYQQKPEKAPNLLIYAASSLQSGVPSRFSGSGSGTDFTLTISSLQPEDFATYYCQQSSTTPPTFGQGTKVEIK
- Kd (SARS-CoV-2 S Trimer): 1.62 nM
- PsV Neut Assay IC50 [1]: 1.44 nM
- Kd (SARS-CoV-2 Spike S1-His [2]): 7.82 nM
- binding result (SARS-CoV1 Spike [change] [3]): no binding
- binding result (MERS-CoV [change]): no binding

B11: A-14 (antibody, V domains shown)
VH: EVQLVESGGGVVQPGRSLRLSCAASGFTFSTYGMHWVRQAPGKGLEWVAVIWYDGSNKYYADSVKGRFTISRDNSKNTLYLQMNSLRAEDTAVYYCARSVDGDYLEYFQHWGQGTLVTVSS
VL: QPVLTQPRSVSGSPGQSVTISCTGTSSDVGGYNYVSWYQQHPGKAPKLMIYDVSKRPSGVPDRFSGSKSGNTASLTISGLQAEDEADYYCCSYAGGYTNYVFGTGTKLTVL
- Kd (SARS-CoV-2 S Trimer): 2.09 nM
- PsV Neut Assay IC50 [1]: 1.61 nM
- Kd (SARS-CoV-2 Spike S1-His [2]): 26.6 nM
- binding result (SARS-CoV1 Spike [change] [3]): no binding
- binding result (MERS-CoV [change]): no binding

B12: A-20 (antibody, V domains shown)
VH: QVQLVESGGGVVQPGRSLRLSCAASGFTFSNFAMHWVRQAPGKGLEWVAVILYDGINKYYADSVKGRFTISRGNSKNTLSLQMNSLRAEDTAVYYCARAQNYYDRSGTLQLDAFDIWGQGTLVTVSS
VL: AIQMTQSPSSLSASVGDRVTITCRASQGIRNDLGWYQQKPGKAPKLLIYAASSLQSGVPSRFSGSGSGTDFTLTISSLQPEDFATYYCLQDYNYPLTFGGGTKVEIK
- WT PsV IC50 [4]: 2.45 nM
- Kd (SARS-CoV-2 Spike S1-His [6]): 3.95 nM
- Kd (SARS-CoV1 Spike [change] [5]): 22 nM

B13: A-20.1 (antibody, V domains shown)
VH: QVQLVESGGGVVQPGRSLRLSCAASGFTFSNFAMHWVRQAPGKGLEWVAVILYDGINKYYADSVKGRFTISRGNSKNTLSLQMNSLRAEDTAVYYCARAQNYYDRSGTLQLDAFDIWGQGTLVTVSS
VL: AIQMTQSPSSLSASVGDRVTITCVASQGIRNDLGWYQQKPGKAPKLLIYEASSLESGVPSRFSGSGSGTDFTLTISSLQPEDFATYYCLQDYNYPLTFGGGTKVEIK
- Kd (SARS-CoV1 Spike [change] [5]): 5.29 nM
